B1: Flag-RAGE wild type (LV-Flag-RAGE-wt, wild-type ctRAGE) [mouse] / mitogen-activated protein kinase kinase 3 (MKK3), endogenous in mouse hippocampus and HT22 cells [mouse (endogenous in hippocampus and in HT22)] (parent)
chain 1: GQNITARIGEPLVLSCKGAPKKPPQQLEWKLNTGRTEAWKVLSPQGGPWDSVARILPNGSLLLPATGIVDEGTFRCRATNRRGKEVKSNYRVRVYQIPGKPEIVDPASELTASVPNKVGTCVSEGSYPAGTLSWHLDGKLLIPDGKETLVKEETRRHPETGLFTLRSELTVIPTQGGTHPTFSCSFSLGLPRRRPLNTAPIQLRVREPGPPEGIQLLVEPEGGIVAPGGTVTLTCAISAQPPPQVHWIKDGAPLPLAPSPVLLLPEVGHEDEGTYSCVATHPSHGPQESPPVSIRVTETGDEGPAEGSVGESGLGTLALALGILGGLGVVALLVGAILWRKRQPRREERKAPESQEDEEERAELNQSEEAEMPENGAGGP
chain 2: MESPAASPPASLPQTKGKSKRKKDLRISCVSKPPVSNPTPPRNLDSRTFITIGDRNFEVEADDLVTISELGRGAYGVVEKVRHAQSGTIMAVKRIRATVNTQEQKRLLMDLDINMRTVDCFYTVTFYGALFREGDVWICMELMDTSLDKFYRKVLEKNMKIPEDILGEIAVSIVRALEHLHSKLSVIHRDVKPSNVLINKEGHVKMCDFGISGYLVDSVAKTMDAGCKPYMAPERINPELNQKGYNVKSDVWSLGITMIEMAILRFPYESWGTPFQQLKQVVEEPSPQLPADQFSPEFVDFTSQCLRKNPAERMSYLELMEHPFFTLHKTKKTDIAAFVKEILGEDS

One experiment covers variants of B1. The experiment can be described thus: co-immunoprecipitation (IP: Flag-RAGE, IB: MKK3), optical density of blot. To be noted: with mitogen-activated protein kinase kinase 3 (MKK3), HT22 cells with RAGE-shRNA knockdown, high glucose, n = 3, parent: 6, read off a plot.
Regarding chain 1 GQNITARIGEPLVLSCKGAPKKPPQQLEWKLNTGRTEAWKVLSPQGGPWDSVARILPNGSLLLPATGIVDEGTFRCRATNRRGKEVKSNYRVRVYQIPGKPEIVDPASELTASVPNKVGTCVSEGSYPAGTLSWHLDGKLLIPDGKETLVKEETRRHPETGLFTLRSELTVIPTQGGTHPTFSCSFSLGLPRRRPLNTAPIQLRVREPGPPEGIQLLVEPEGGIVAPGGTVTLTCAISAQPPPQVHWIKDGAPLPLAPSPVLLLPEVGHEDEGTYSCVATHPSHGPQESPPVSIRVTETGDEGPAEGSVGESGLGTLALALGILGGLGVVALLVGAILWAAAAPRREERKAPESQEDEEERAELNQSEEAEMPENGAGGP [chain 1 R340A K341A R342A Q343A], the response (fold change to HG + RAGE-shRNA group) turned out to be 1.6.

The experiment is the same for the next values; noted with them: with mitogen-activated protein kinase kinase 3 (MKK3), hippocampus of db/db mice with LV-RAGE-shRNA, n = 3, parent: 3, read off a plot.
As for chain 1 GQNITARIGEPLVLSCKGAPKKPPQQLEWKLNTGRTEAWKVLSPQGGPWDSVARILPNGSLLLPATGIVDEGTFRCRATNRRGKEVKSNYRVRVYQIPGKPEIVDPASELTASVPNKVGTCVSEGSYPAGTLSWHLDGKLLIPDGKETLVKEETRRHPETGLFTLRSELTVIPTQGGTHPTFSCSFSLGLPRRRPLNTAPIQLRVREPGPPEGIQLLVEPEGGIVAPGGTVTLTCAISAQPPPQVHWIKDGAPLPLAPSPVLLLPEVGHEDEGTYSCVATHPSHGPQESPPVSIRVTETGDEGPAEGSVGESGLGTLALALGILGGLGVVALLVGAILWAAAAPRREERKAPESQEDEEERAELNQSEEAEMPENGAGGP [chain 1 R340A K341A R342A Q343A], the response (fold change to db/db + RAGE-shRNA group) stood at 1.4.

In the next experiment the parent is B1. The experiment can be described thus: co-immunoprecipitation (IP: MKK3, IB: Flag-RAGE), optical density of blot. To be noted: with mitogen-activated protein kinase kinase 3 (MKK3), HT22 cells with RAGE-shRNA knockdown, high glucose, n = 3, parent: 6.8, read off a plot.
For the variant chain 1 GQNITARIGEPLVLSCKGAPKKPPQQLEWKLNTGRTEAWKVLSPQGGPWDSVARILPNGSLLLPATGIVDEGTFRCRATNRRGKEVKSNYRVRVYQIPGKPEIVDPASELTASVPNKVGTCVSEGSYPAGTLSWHLDGKLLIPDGKETLVKEETRRHPETGLFTLRSELTVIPTQGGTHPTFSCSFSLGLPRRRPLNTAPIQLRVREPGPPEGIQLLVEPEGGIVAPGGTVTLTCAISAQPPPQVHWIKDGAPLPLAPSPVLLLPEVGHEDEGTYSCVATHPSHGPQESPPVSIRVTETGDEGPAEGSVGESGLGTLALALGILGGLGVVALLVGAILWAAAAPRREERKAPESQEDEEERAELNQSEEAEMPENGAGGP [chain 1 R340A K341A R342A Q343A], the response (fold change to HG + RAGE-shRNA group) was found to be 1.8.

Staying with this experiment, now noted: with mitogen-activated protein kinase kinase 3 (MKK3), hippocampus of db/db mice with LV-RAGE-shRNA, n = 3, parent: 3.4, read off a plot.
For chain 1 GQNITARIGEPLVLSCKGAPKKPPQQLEWKLNTGRTEAWKVLSPQGGPWDSVARILPNGSLLLPATGIVDEGTFRCRATNRRGKEVKSNYRVRVYQIPGKPEIVDPASELTASVPNKVGTCVSEGSYPAGTLSWHLDGKLLIPDGKETLVKEETRRHPETGLFTLRSELTVIPTQGGTHPTFSCSFSLGLPRRRPLNTAPIQLRVREPGPPEGIQLLVEPEGGIVAPGGTVTLTCAISAQPPPQVHWIKDGAPLPLAPSPVLLLPEVGHEDEGTYSCVATHPSHGPQESPPVSIRVTETGDEGPAEGSVGESGLGTLALALGILGGLGVVALLVGAILWAAAAPRREERKAPESQEDEEERAELNQSEEAEMPENGAGGP [chain 1 R340A K341A R342A Q343A], the response (fold change to db/db + RAGE-shRNA group) was found to be 1.9.

Values taken from article PMC8844116.
